From patent US20220332804A1 (CSL INNOVATION, published 2022)
Positions count from the first letter of the chain named.

What was measured:
Experiment in all cases: SPR; KD relative to WT C2;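 note: biacore SPR at 37 °C, anti-C2 mAbs captured on an anti-human IgG chip, alanine or serine C2 surface mutants tested, KD from 1:1 fit compared with wild-type C2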
human C2 I438A = biological target: T1, human C2 I438A (human, UniProt P06681 21-752)
T1 sequence: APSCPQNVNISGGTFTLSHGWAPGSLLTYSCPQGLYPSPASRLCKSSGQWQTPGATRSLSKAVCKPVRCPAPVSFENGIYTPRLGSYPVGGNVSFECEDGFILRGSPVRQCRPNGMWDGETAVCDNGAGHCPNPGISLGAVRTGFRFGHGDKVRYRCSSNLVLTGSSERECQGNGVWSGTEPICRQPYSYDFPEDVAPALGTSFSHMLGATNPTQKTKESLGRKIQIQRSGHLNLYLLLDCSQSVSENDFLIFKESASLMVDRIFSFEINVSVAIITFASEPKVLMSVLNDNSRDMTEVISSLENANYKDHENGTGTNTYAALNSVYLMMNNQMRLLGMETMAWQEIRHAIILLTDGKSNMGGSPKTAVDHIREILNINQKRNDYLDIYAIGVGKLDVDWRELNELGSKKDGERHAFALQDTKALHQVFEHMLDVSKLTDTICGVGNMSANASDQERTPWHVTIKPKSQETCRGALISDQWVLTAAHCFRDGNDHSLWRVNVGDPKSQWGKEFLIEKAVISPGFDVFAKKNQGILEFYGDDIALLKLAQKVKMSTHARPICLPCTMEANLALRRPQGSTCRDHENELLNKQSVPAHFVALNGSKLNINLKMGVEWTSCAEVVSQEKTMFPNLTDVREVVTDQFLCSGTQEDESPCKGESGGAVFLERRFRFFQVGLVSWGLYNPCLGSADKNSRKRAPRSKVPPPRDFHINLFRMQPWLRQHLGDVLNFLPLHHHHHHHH

human C2 G466A = biological target: T2, human C2 G466A (human, UniProt P06681 21-752)
T2 sequence: T1 sequence with A418I, G446A

human C2 F437A = biological target: T3, human C2 F437A (human, UniProt P06681 21-752)
T3 sequence: T1 sequence with F417A, A418I

human C2 A326S = biological target: T4, human C2 A326S (human, UniProt P06681 21-752)
T4 sequence: T1 sequence with A306S, A418I

Fold diff (human C2 I438A): 1 fold | Fold diff (human C2 G466A): 5 fold | Fold diff (human C2 F437A): 12 fold | Fold diff (human C2 A326S): 1 fold
B1: RF16-214 (antibody, V domains shown)
VH: EVQLLESGGGLVQPGGSLRLSCAASGFTFSWYQMMWVRQAPGKGLEWVSRIYPSGGGTAYADSVKGRFTISRDNSKNTLYLQMNSLRAEDTAVYYCARDAGYGDNWGQGTLVTVSS
VL: QSALTQPPSVSVSPGQTASITCSGDKLGEKYASWYQQKAGQSPVMVIYQDRKRPSGIPERFSGSNSGNTATLTISGTQAMDEADYYCQAWDTRAVVFGGGTKLTVLG
